The domain aggregation screens of Martell et al. (2025)

Assay: soluble fraction after stress (log2 fold change); higher = more stays soluble; pooled small domains, quantitative proteomics
Conditions: stress: 50 degC
In short: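 The measure of aggregation propensity here is the base-two logarithm of the fold change in the soluble amount of each protein after stress. A higher value means more of that protein stays in solution. Stress was applied at 50°C to pooled libraries of small protein domains, read out by high-throughput quantitative proteomics.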

| Sequence | soluble fraction (log2) |
| --- | --- |
| HMSDAKKRAFSKDEILYSLKNRPFTSFDIESLFDDESKKTFIGLLDKGEISEKKVAGTIFYYLR | -0.0659 |
| HMSDEEAISKLPGVGPAILEKLKEAGYNDIMTIAVDSPKNLAELAEIGEPTAAKIIAAAKKAAD | 0.0933 |
| HMSDIDIDVENDRAALAIAGGKLNHLVGARGEVLDALQELTRLAVQTSLGERSRLMLDIDNFRSD | -0.00224 |
| HMSDIHARIAAALAALTSPEKIHDLVVDDDGKVSFTFHLTREDPATLVRDARKAVQAVDGVRDVKVNVVDP | 0.172 |
| HMSDKEDIDKYLLTYGDLLFNRTNSSEWVGKTAIYRGEVSAIYAGYLIRIRSFLDAEYLNSVMNSKYA | -0.235 |
| HMSDKTSLTDDDKALINSMLPDYDKYPSVAKLQAVEIAKSSSKMATLLMLDERYNETVSEALE | 0.0209 |
| HMSDLGEIEKIVDEVLAENITKVQEYKDGKKGLMGMFMGQIMKKSGGKADPKIANQLLTEKL | 0.114 |
| HMSDNHYLLEIFLADLKSDEKFIRELAIFQLHHHIESDKVRAELKAAAETESDPYLKGMIESLLSSTS | -0.943 |
| HMSDNYYSILGIETDATTDMIKRAYRRLSLELHPDRTKDNPILTEKYKKVNEAYGVLNDNDRKHIYDLQNI | -0.216 |
| HMSDPELAIPRVVGLSGNDAQAALVKAGFSAVTVVTVKNSEVTSEQVTHVVPAEGAKAKASTPVTVVVSSS | -0.0196 |
| HMSDRQLKRQANILYTTRKLASKVGYDGLTMRGLAEASEVSPKTLYNLFSSKDELLAAALEDLVGIV | 0.282 |
| HMSDTFTITTESGRIDKIITAHETTHTRSQVQKWLQDGLVTVNGNPVKANFKVTAGDVVTVTIPEVK | 0.104 |
| HMSDTMTVTNVKYAIYLRSTPSEASDANIIMEIPVGSKVTYLDTPNNTFYKISYGGTVGYSKQIYLTF | -0.836 |
| HMSDVLPEAILERRLVKKGNRAVPQVLIKWTKLPATSATWEDFYVLQQRFPTALAWGQAPSPGGQM | -0.221 |
| HMSDVTPDVVRALRKRLKLTQVQFGEIFGMTSKKVSAWEHGKAEPTEEQKQKIQSLLKENNEQ | -0.0029 |
| HMSEATTVNYKYAVTISDLRIRKGPGTNYGSVGYTGKGVFTIVAEKGGWGKLKSGAGWISLNSKYGHKVS | -1.45 |
| HMSEEAMVSNFRQQEILELARKDGKVTVDGLAELYDVTVQTIRRDLSDLADSGRLKRVHGGAVVPS | 0.262 |
| HMSEFGENLKKLRTARDLTQQELGAKVGLSKAVVSKYENGLGYPTFDVLIRIAAYFGVTTDYLLGV | -0.442 |
| HMSEFSDRFRLLKDESGATLKELSEQLDITVPNLSYYMKGREPSYDILIKIADYFGVTTDWLIGRTDER | -0.547 |
| HMSEILQLINKIDKKLEKGYTFANISRNHYEKIYKEEILNLYKTSKLKGEAEDSIKEVLESLLGDLRKP | 0.0222 |
| HMSEISAEAGKRIRYFRKSRSMTLEELAAVIHKSKATLSKYETGEISIDLDTLYDLAVALQVRAEQLLPAS | -2.29 |
| HMSEITMMQMEIPEGHNWENRLVKDVSMPTGSLAVMIKRHGETLIPGGDTRILAGDTIVLSVPAYESG | -0.0716 |
| HMSEIYVDDINRKILYLLSQGIKTKSLLEHIPLSMSGIEKRKKQLKMLFSVEDGKDETLLEMAKEKGF | -1.45 |

| Sequence | soluble fraction (log2) |
| --- | --- |
| HMSEKAQSENEDLIKILALLIHAAKIDENYSEKEKKLIISFAEMSSNKKLDREQINSLVDKAEQYEK | -0.17 |
| HMSEKLLTLNEISEKLRVSRHTVQAWVSPSSPNHRPEFSSLARHAGRKTVFLESDVDAWLAQRR | -0.839 |
| HMSEKYPPIDWNNIKTGQSVLIKDINQVVSLTKLPDSKGFAEVQMGLIKTKIKAEKLAATDKKPNK | 0.0917 |
| HMSELDSYIGARLRMRRLMLGMSQEALGEKLSLTFQQIQKYEKGTNRVSASRLYELAQVLDVPVQFFFDGA | -2.93 |
| HMSENDTILAKFASIINNKSLELVIFPDTAYLKGQVSTPEDKARAETVAQSLLGSKPLISLIEFE | -0.0145 |
| HMSENPLTSREIEIVQLLANGKTTKSIAEELHLSNGTIRNYVSIVLDKLNVSNRIEAIRKALDKGWL | -1.29 |
| HMSEPQEISYSDFIEQVNRNEIRQVEFDGQHEYLTVIRKDTSRFKVIIPAPDPRLLDDLMEHDVEIVGKE | 0.0895 |
| HMSEQYEQIQLALKTLTQDEQDIVRLVVVEGASLRTAGKNLGVSAMTIQRRLKRALARLRDLLAS | -0.948 |
| HMSESKYKMIKNWIKSKILDGTLVPNQKIYSESELMEIFDVSRHTVRLAIGELVSEGYLFKRQGTGTFVTQ | -0.577 |
| HMSETTSRVLQLLGLLQARRVWTGQELADRLGVTGRSVRRDIERLRDLGYPVHASKGRDGGYQLGA | -1.01 |
| HMSEYILATNDGEFLRITSYSKEEGGMLVWEKTSSIVSAEHKVIPYSQIINIKDRNGDVVWDKD | -0.346 |
| HMSEYNPGIYRVTDPALNIRTGPGVEYPVVGVIKDQGSYTITEIRNKSWGRLLSGAGSTAIKHIVFT | 0.0941 |
| HMSFEITGDELILRFVKDKGGATTEQIRKHWEASNRGGKSDNNLTNLVKSGKLLRSKDPNGPGSLYTAS | -0.231 |
| HMSFESMGLTPRQADVLTLLLQGKSNKDIARRLVLSVETVKDHVQAVLRALGVSSRTQAVLAVGQMTQQ | -0.292 |
| HMSFGYFQLRAKDPQKLKSVLEKIPQIQSIKEEKGDLIGYLNADMEAEELSQKLAAAKIFVTHMAKKK | -0.0166 |
| HMSFISRMVVAVEDIALSTRPNSTPSGDKYVSKGTVLLMEKRENDWVEVRQPSSPLSGWAPKTSLLSV | -0.546 |
| HMSFNLSETKKLILEEIQKGVSSVTQIAATAGISKGMTYNHLRELKLMGYIADGDSGYVITDAGKIAS | -0.04 |
| HMSFRYLHVKRQLMSLIGTMNAHERLPSRTDLSETFQVARTTIERAISELIGEGWLYARDGSGTYVAER | -1.66 |
| HMSFSTHHEYYIYNLAVDMRKGYDGLSGLVVNELGRQPWDGSVYVFFNTMRDKVKLLVWDTDGYVIYSKR | 0.279 |
| HMSFTDLILKSANAIDEMGGIWENGKQILGEKAIAIHEEIVDNGLNPDKDGFYKLANGQMIQYG | -0.000487 |
| HMSFVEVTVSELKNYVNSHARIKLKSGKEFKGFILDANEEGVIIKVQLRGGTAESTISYNRIDRAAVF | -1.69 |
| HMSGAERAAALLVALGPEVASEIMKFLDDESIQKLASEIAKIEVLSPQEKEDLIGQFLLELKKT | -0.214 |
| HMSGAWEVGLLRQFTDWMGTQYNAYAGRNFDAITVAQVAEKNPELLTPFVESFFKERVEPALAAG | -0.849 |

| Sequence | soluble fraction (log2) |
| --- | --- |
| HMSGEDYLERILMLKEKHGNVRAIDIANSMNFSKPSVSIALHKLSENGYVVIQNNGAIELTEKGLEVAT | -0.315 |
| HMSGEIPFPPAFKPSADHIAIASEKGINIETELLNFRDYHQARGTKLIDWNSAFRVWLRNAR | -0.144 |
| HMSGEITVPNLIGVEAIQAKTLLIQAGFLIKEFYDLDSTQPAGVVIRQAPEAGTTQTIGKSVTITINKQ | -0.00644 |
| HMSGENAVLTEGTMVTVRRGGETITATARKETVKQFLSRMDIIPGSREMVGIELMENSVMLTISD | -0.227 |
| HMSGFPTDAQIVREIRNILPTLENPTPRMVRKALENTFEVDMGESKTKKYINNIIITEYEKWSSVQSIRE | -0.534 |
| HMSGGNTSAFKGKLNYEYRGNDTIITGSTYPVKELIKKAGGRWDPGSSAWIIKGRHVSDNEIF | 0.171 |
| HMSGQKDVPDLYGMTVKQAKKEVEAAGFKLKEGKEVYSNDYSKGQIAEQDPESGSKAKKGSSITVHVSKG | 0.0677 |
| HMSGRIWTDNYGRTIEADVIKVNINRTVLLEFTDKKTKTVSFDTFISKDIQYLEYLLTRRNRGKL | -3.9 |
| HMSGRVPTADDIAVGMKVYVPRLGGTGTVVTEPVRDKVVIQVGSLRLHAEVAELLLPDEHGRIQVPR | 0.00655 |
| HMSGTGSYVALLRDPQGNVGKVVVKGSKGEQVLSQPQQAARLDGATPSYEVTGRQIAEDFGRALAV | 0.127 |
| HMSGTYIATVEAGSLDIYKSMTSNETIGKASRGDVFQILEDMGSGYARVSYNDVEGYMSIKTGDASIEEL | -0.203 |
| HMSGVSESIEKKIQYLLLEKPLPLHDLIEAIEIGKEEDRLKVLRSLMDSDTVKIEDDLYHWNA | -0.0841 |
| HMSGYSTLFTRMSREDAQAVVSLLQDDGIEYRYNDDTGTVQVPSATVDQTRAKLVSAGYPRS | -0.231 |
| HMSHANAALTPRARLRLAKLIVEEHWPVATAAKMFMVSPPTARKWATRFRAEGPAGMADRSSRP | -1.46 |
| HMSHFRMLPSITEADAFLKSRSLPAGLEVREQVDAFLAQARQTLALAQEAPWLSKQEVLETLADEFVQTS | -0.496 |
| HMSHFSERLKSLRQQSSITQAKLADDLNVTKSLISMYESGQRLPSFEMLETIADYFNVPLSSLV | -0.089 |
| HMSHGFFTLQSDDLNLLRTVLEGHSSIGDIKIEGIQLVAYLKEPLNGAELNKILFEKGINLSYLVHRK | -2.15 |
| HMSHGFVHLKGAVQHPGIYPVKENTRWDEVVKAAGGLTAAADIQQVNLAKVASDQESLYVPEKGET | 0.098 |
| HMSHGSIYFSGKTGLKGSVDINGTVNSINKKIFLKPGNYNFLIKADGYKNLKGSFQISKGDKKFVELVLIP | -1.61 |
| HMSHGYVELKAENNDALISALENHTWFENIKLDPETNLVKAILTKPIEAENLNKMLFEKGIILSHLVKRK | -0.0853 |
| HMSHYDILEVDPKASATEIKQSFRKKSLQYHPDRNKSSDAHEYMTKITEAYNILGDKDKRRHYDMELKL | 0.442 |
| HMSHYEYKVGDRVNLLDYDDFGILYKEKDNFYNVVVYYNGEFVEVNVKRITLEVAAKELYPEGYDLSTLFV | -4.14 |
| HMSIASASVKEKIRDIVSSEPPQKPFSDAKIAEILAEDGIAIARRTVAKYREEIGIPTKSLRKR | 0.0195 |
